Results on 1 molecule are retold here after PMC4474781 (Environmental microbiology, 2015).

This assay has as its target T1, oxidoreductase FAD/NAD(P)-binding subunit (Dred_1685), His6-tagged, co-expressed with Dred_1686 (Desulfotomaculum reducens MI-1, UniProt A4J559 1-262).
T1 sequence (looked up): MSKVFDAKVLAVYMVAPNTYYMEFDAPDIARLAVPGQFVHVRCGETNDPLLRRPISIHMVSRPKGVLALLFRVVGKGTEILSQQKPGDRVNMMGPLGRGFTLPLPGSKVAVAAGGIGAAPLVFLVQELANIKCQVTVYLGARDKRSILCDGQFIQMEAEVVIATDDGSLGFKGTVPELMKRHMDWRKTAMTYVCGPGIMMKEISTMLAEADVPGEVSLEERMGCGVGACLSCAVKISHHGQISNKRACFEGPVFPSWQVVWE
Briefly: pull-down.

B1: dihydroorotate dehydrogenase 1B (Dred_1686), untagged, co-expressed with His6-Dred_1685 (enzyme, Desulfotomaculum reducens MI-1, UniProt A4J560 1-304, looked up)
chain: MKLNLAVKIGQLDMINPVTTASGTFGYGQEYSPYVDLNQLGAIVVKGTTLEPREGNPTPRLVETPSGILNSIGLQNSGVDYLLEHYVPFFKKLQTNVIVNISGNTAEEYGQLAARLDEADGIAALEVNISCPNVKKGGMAFGGDFRTAAEVTKVVKNSTALPVIVKLSPNVTDIAEIARAVEGAGADGLSVINTLLGMAIDVRKRKPVLGNTMGGLSGPAVKPVALRAVWQVYKAVHIPIIGMGGIMNATDALEFILAGAQAVSVGTANFVNPYATKEIIQGMEKYLMENGIGDINELVGAAHL
For the molecule B1, the “stoichiometry N” value is 1.
